In publication PMC11079029, “Intramolecular autoinhibition regulates the selectivity of PRPF40A tandem WW domains for proline-rich motifs” (Nature Communications, 2024):

B1: FAM120A (protein, UniProt Q9NZB2 1-1118, looked up)
Constitutive coactivator of …: MGVQGFQDYIEKHCPSAVVPVELQKLARGSLVGGGRQRPPQTPLRLLVDADNCLHRLYGGFYTDWVSGGQWNHMLGYLAALAKACFGGNIELFVFFNGALEKARLHEWVKRQGNERQTAQQIVSHVQNKGTPPPKVWFLPPVCMAHCIRLALIRFHVKVAQSIEDHHQEVIGFCRENGFHGLVAYDSDYALCNIPYYFSAHALKLSRNGKSLTTSQYLMHEVAKQLDLNPNRFPIFAALLGNHILPDEDLASFHWSLLGPEHPLASLKVRAHQLVLPPCDVVIKAVADYVRNIQDTSDLDAIAKDVFQHSQSRTDDKVIRFKRAIGYYSATSKPMSFHPPHYLAARPGPFGMPGMVPPHVPPQMLNIPQTSLQAKPVAPQVPSPGGAPGQGPYPYSLSEPAPLTLDTSGKNLTEQNSYSNIPHEGKHTPLYERSSPINPAQSGSPNHVDSAYFPGSSTSSSSDNDEGSGGATNHISGNKIGWEKTGSHSEPQARGDPGDQTKAEGSSTASSGSQLAEGKGSQMGTVQPIPCLLSMPTRNHMDITTPPLPPVAPEVLRVAEHRHKKGLMYPYIFHVLTKGEIKIAVSIEDEANKDLPPAALLYRPVRQYVYGVLFSLAESRKKTERLAFRKNRLPPEFSPVIIKEWAAYKGKSPQTPELVEALAFREWTCPNLKRLWLGKAVEDKNRRMRAFLACMRSDTPAMLNPANVPTHLMVLCCVLRYMVQWPGARILRRQELDAFLAQALSPKLYEPDQLQELKIENLDPRGIQLSALFMSGVDMALFANDACGQPIPWEHCCPWMYFDGKLFQSKLLKASREKTPLIDLCDGQADQAAKVEKMRQSVLEGLSFSRQSHTLPFPPPPALPFYPASAYPRHFGPVPPSQGRGRGFAGVCGFGGPYGETVATGPYRAFRVAAASGHCGAFSGSDSSRTSKSQGGVQPIPSQGGKLEIAGTVVGHWAGSRRGRGGRGPFPLQVVSVGGPARGRPRGVISTPVIRTFGRGGRYYGRGYKNQAAIQGRPPYAASAEEVAKELKSKSGESKSSAMSSDGSLAENGVMAEEKPAPQMNGSTGDARAPSHSESALNNDSKTCNTNPHLNALSTDSACRREAALEAAVLNKEE
B2: NKRF (protein, UniProt O15226 1-690, looked up)
NF-kappa-B-repressing factor: MEKILQMAEGIDIGEMPSYDLVLSKPSKGQKRHLSTCDGQNPPKKQAGSKFHARPRFEPVHFVASSSKDERQEDPYGPQTKEVNEQTHFASMPRDIYQDYTQDSFSIQDGNSQYCDSSGFILTKDQPVTANMYFDSGNPAPSTTSQQANSQSTPEPSPSQTFPESVVAEKQYFIEKLTATIWKNLSNPEMTSGSDKINYTYMLTRCIQACKTNPEYIYAPLKEIPPADIPKNKKLLTDGYACEVRCQNIYLTTGYAGSKNGSRDRATELAVKLLQKRIEVRVVRRKFKHTFGEDLVVCQIGMSSYEFPPALKPPEDLVVLGKDASGQPIFNASAKHWTNFVITENANDAIGILNNSASFNKMSIEYKYEMMPNRTWRCRVFLQDHCLAEGYGTKKTSKHAAADEALKILQKTQPTYPSVKSSQCHTGSSPRGSGKKKDIKDLVVYENSSNPVCTLNDTAQFNRMTVEYVYERMTGLRWKCKVILESEVIAEAVGVKKTVKYEAAGEAVKTLKKTQPTVINNLKKGAVEDVISRNEIQGRSAEEAYKQQIKEDNIGNQLLRKMGWTGGGLGKSGEGIREPISVKEQHKREGLGLDVERVNKIAKRDIEQIIRNYARSESHTDLTFSRELTNDERKQIHQIAQKYGLKSKSHGVGHDRYLVVGRKRRKEDLLDQLKQEGQVGHYELVMPQAN
B3: LARP7 (protein, UniProt Q4G0J3 1-582, looked up)
La-related protein 7: METESGNQEKVMEEESTEKKKEVEKKKRSRVKQVLADIAKQVDFWFGDANLHKDRFLREQIEKSRDGYVDISLLVSFNKMKKLTTDGKLIARALRSSAVVELDLEGTRIRRKKPLGERPKDEDERTVYVELLPKNVNHSWIERVFGKCGNVVYISIPHYKSTGDPKGFAFVEFETKEQAAKAIEFLNNPPEEAPRKPGIFPKTVKNKPIPALRVVEEKKKKKKKKGRMKKEDNIQAKEENMDTSNTSISKMKRSRPTSEGSDIESTEPQKQCSKKKKKRDRVEASSLPEVRTGKRKRSSSEDAESLAPRSKVKKIIQKDIIKEASEASKENRDIEISTEEEKDTGDLKDSSLLKTKRKHKKKHKERHKMGEEVIPLRVLSKSEWMDLKKEYLALQKASMASLKKTISQIKSESEMETDSGVPQNTGMKNEKTANREECRTQEKVNATGPQFVSGVIVKIISTEPLPGRKQVRDTLAAISEVLYVDLLEGDTECHARFKTPEDAQAVINAYTEINKKHCWKLEILSGDHEQRYWQKILVDRQAKLNQPREKKRGTEKLITKAEKIRLAKTQQASKHIRFSEYD

Test system: GFP-tagged PRPF40A-Nter-MUT
Assay: SILAC GFP-immunoprecipitation with quantitative mass spectrometry, mutant construct
Assay type: binding, human (Hela cells)
Conditions: quantitative MS, Hela cells, protein by gene name
In short: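 GFP-tagged PRPF40A N-terminal region (isoform 2, residues 1–221) with PPVP/PALPP motifs mutated to alanines, transiently expressed 24 h in SILAC-labelled HeLa cells alongside GFP control. Lysates (2.5 mg) pulled down on GFP-nanobody beads 1 h at 4 °C; pooled eluates trypsin-digested and quantified by LC-MS/MS on Orbitrap.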

Molecule | Immunoprecipitation enrichment MUT vs WT, log2 FC
B1 | 1.247
B2 | 1.452
B3 | 1.221
